In publication doi:10.1101/2024.12.05.626941 (bioRxiv, 2024):

Target: the molecule itself
Assay: SEC

B1: Physcomitrella patens adenosine kinase 1 (PpADK1) (enzyme, UniProt O49923 1-343, looked up)
chain: MASEGVLLGMGNPLLDISCVVDDAFLEKYGLTLNNAILAEDKHLPMYKELAANPDVEYIAGGATQNTIRIAQWMLGESNATSYFGCVGKDEYGDRMFKLASEGGVNIRYDVDEDLPTGTCGVLVVKGERSLVANLSAANKYKIDHLKKPENWAFVEKAKYIYSAGFFLTVSPESMMTVAKHAAETGKYYMINLAAPFICQFFKDPLMELFPYVDFIFGNESEARAFAQVQGWETEDTKVIAVKLAALPKAGGTHKRVAVITQGTDPTIVAEDGKVTEFPVTPIPKEKLVDTNAAGDSFVGGFLSQLVLGKDIAQCVRAGNYAASVIIQRSGCTFPSKPSFESQ
How did the “stoichiometry N” value turn out when B1 was run?
Its value is 2.
